We go through two molecules from patent US20220177547A1 (KYUNGPOOK NATIONAL UNIVERSITY INDUSTRY ACADEMIC COOPERATION …, published 2022).

For test [1], the target named is T1, TRAIL receptor protein Dr5 (UniProt O14763 56-182, limits assumed).
T1 construct: Purified protein amine-coupled (NHS-EDC) to the SPR chip; The construct is not described
The experiment in a line: SPR, Dr5 coupled to gold sensor chip, TRAIL-ATNC flowed 8.33 nM to 0.52 nM. As to the method: (§1) The TRAIL receptor protein Dr5 was coupled to a surface of a gold sensor chip by flowing it on the surface of the gold sensor chip for surface resonance plasma (SPR) activated with NHS-EDC, and blocked with ethanolamine. The binding kinetics were analyzed by flowing TRAIL-ATNC dissolved in TBS from 8.33 nM to 0.52 nM by half, and TRAIL from 400 nM to 25 nM by half on the TRAIL receptor-coupled gold sensor chip, respectively. The right channel, which was not coated with Dr5, was used as a control (or reference).
A general note: In SPR one partner is held on a chip, and binding of the other changes the refractive index at the surface.

The target of test [2] is T1, TRAIL receptor protein Dr5. Put plainly: SPR, Dr5 coupled to gold sensor chip. As to the method:
as §1
It was determined that TRAIL-ATNC bound to the TRAIL receptor faster than TRAIL, and formed a stable complex in which dissociation was delayed after binding.

Test [3] has as its target T2, Interleukin 4 receptor (IL4R) protein (UniProt P24394 26-232, limits assumed).
T2 construct: Purified protein amine-coupled (NHS-EDC) to the SPR chip; The construct is not described
T2 sequence (looked up): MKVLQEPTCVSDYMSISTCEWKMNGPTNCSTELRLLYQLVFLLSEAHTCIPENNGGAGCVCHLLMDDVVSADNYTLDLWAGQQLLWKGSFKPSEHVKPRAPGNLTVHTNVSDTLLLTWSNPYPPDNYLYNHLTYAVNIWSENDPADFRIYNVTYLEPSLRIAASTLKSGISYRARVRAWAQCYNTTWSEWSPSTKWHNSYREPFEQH
The experiment in a line: SPR, IL4R coupled to gold sensor chip, TRAIL-ATNC^IL4rP flowed 41.67 nM to 0.65 nM. The method, then:
Interleukin 4 receptor (IL4R) protein was coupled to the surface of a gold sensor chip for surface resonance plasma (SPR) activated with NHS-EDC, and TRAIL-ATNC^IL4rP dissolved in TBS was flowed from 41.67 nM to 0.65 nM in half on the IL4R-coupled gold sensor chip to analyze binding kinetics. The right channel, which was not coated with IL4R, was used as a reference.

Broadly, the Kd is the constant that tells how readily two partners part at equilibrium. Read a low Kd as a tighter complex. Broadly, the koff is the first-order rate constant of dissociation. Higher therefore signals fast dissociation. For orientation: kon means the rate constant with which the complex forms. A high value points to faster complex formation.

B1: TRAIL-ATNC (Active Trimer Nanocage) (other)
chain: MGSSHHHHHHSSGLVPRGSQHMVRERGPQRVAAHITGTRGRSNTLSSPNSKNEKALGRKINSWESSRSGHSFLSNLHLRNGELVIHEKGFYYIYSQTYFRFQEEIKENTKNDKQMVQYIYKYTSYPDPILLMKSARNSCWSKDAEYGLYSIYQGGIFELKENDRIFVSVTNEHLIDMDHEASFFGAFLVGGSGGGSGEFEALQGQVQHLQAAFSQYKKVELFPVDGGGGAEAAAKEAAAKTSDSEAAINRQINLELYASYVYLSMSYYFDRDDVALKNFAKYFLHQSHEEREHAEKLMKLQNQRGGRIFLQDIKKPDCDDWESGLNAMECALHLEKNVNQSLLELHKLATDKNDPHLCDFIETHYLNEQVKAIKELGDHVTNLRKMGAKL
notes: It was expressed from pET-28a and purified on Ni-NTA; also called TRAIL-attached nanocage
On to B1, for which, in test [1], binding was put at a Kd of 0.411 nM, the koff came to 0.000217 s⁻¹ and the association rate constant (kon) was determined as 529000 M⁻¹ s⁻¹. In test [2], the “fold higher kon than TRAIL alone” value was roughly 10 fold, the “fold lower KD than TRAIL” value was roughly 100 fold and the “fold lower koff than TRAIL alone” value was roughly 10 fold.

B2: TRAIL-ATNC^IL4rP (other)
chain: MGSSHHHHHHSSGLVPRGSQHMVRERGPQRVAAHITGTRGRSNTLSSPNSKNEKALGRKINSWESSRSGHSFLSNLHLRNGELVIHEKGFYYIYSQTYFRFQEEIKENTKNDKQMVQYIYKYTSYPDPILLMKSARNSCWSKDAEYGLYSIYQGGIFELKENDRIFVSVTNEHLIDMDHEASFFGAFLVGGSGGGSGEFEALQGQVQHLQAAFSQYKKVELFPVDGGGGAEAAAKEAAAKTSDSEAAINRQINLELYASYVYLSMSYYFDRDDVALKNFAKYFLHQSHEEREHAEKLMKLQNQRGGRIFLQDIKKPDCDDWESGLNAMECALHLEKNVNQSLLELHKLATDKNDPHLCDFIETHYLNEQVKAIKELGDHVTNLRKMGAKLGGGSGGPLGLAGGGGSGCRKRLDRNC
notes: Ferritin nanocage of 24 fusion polypeptides; It was expressed from pET-28a and purified on Ni-NTA; also called TRAIL trimer fusion protein expressed on the cancer-targeting ferritin nanocage
As for B2, in test [3], binding was characterised by a dissociation constant (Kd) of 37.7 nM.
